Data taken from patent publication US20250263441A1 (Metanovas Biotech Inc., priority 2024, published 2025).
≈ marks a conversion by molar mass, not a printed value. Where “and” joins values, the source holds several entries; their conditions need not be identical. Identical values can stand only once.

Assays:
Assay type in all cases: cell-based
[1] = system: Mouse macrophage RAW264.7 cells; experiment: IL-6 and IL-1β protein concentration in LPS-stimulated RAW264.7 cells (ELISA); conditions: Dexamethasone positive control; LPS 10 ng/ml, 24 hours; repeated experiments
Experimental: (§1) (1) Mouse macrophage RAW264.7 cells were cultured in DMEM supplemented with 10% fetal bovine serum (FBS) and 1% penicillin and streptomycin (P/S) at 37° C. in a 5% CO2 incubator.
(§2) (2) 5×10^4 mouse-derived RAW264.7 macrophages were placed in 12-well cell culture plates and cultured for 24 hours. Then, 20 μL of PBS (negative control), Dexamethasone (positive control), and the test peptide were added to the wells for incubation for 2 hours. Afterward, 10 ng/ml of lipopolysaccharide (LPS) was mixed with RAW264.7 cells and incubated for 24 hours.
(§3) (3) The supernatant was collected, and NO and IL-6/IL-1ß expression levels were measured using a commercial kit.
2. After treating RAW264.7 cells with peptide AMP-33, an ELISA kit was used to detect the concentration of IL-6 and IL-1β proteins.

[2] = system: Mouse macrophage RAW264.7 cells; experiment: NO concentration after treatment of LPS-stimulated RAW264.7 cells; conditions: Dexamethasone positive control; LPS 10 ng/ml, 24 hours; replicate experiments
Experimental: as §1, §2, §3

Propionibacterium acnes = experiment: Minimum inhibitory concentration on Propionibacterium acnes (liquid culture); conditions: for Minimum inhibitory concentration on Propionibacterium acnes: anaerobic, 37° C., 24 to 48 hours
Experimental: (§4) Primary screening of liquid culture: the peptides in Examples 1 to 2 were dissolved in pure water to a concentration of 100 μg/mL. Using a micropipette, 10 μL of the peptides were added to a new 96-well plate in order from left to right, starting from the second compartment. Positive and negative controls were established for use. The 96-well plates were arranged vertically, and the peptide concentrations in the control groups were the same as those of the antimicrobial peptides. The control groups included: pure water and bacteria, antimicrobial peptide FK13 and bacteria, antimicrobial peptide HPA3NT3 and bacteria, and ciprofloxacin and bacteria. An aseptic medium was used.
(§5) If a 96-deep-well plate was used to culture bacteria, an additional 100 μL of sterile medium was added to all wells.
Propionibacterium acnes was inoculated on an anaerobic blood agar plate, placed in an anaerobic bag, and incubated anaerobically at 37° C. for 48 hours. Propionibacterium acnes clones were then picked and incubated anaerobically in liquid anaerobic broth medium at 37° C. for an additional 48 hours. The bacterial concentration was measured and diluted to 107 CFU/mL with culture medium.
(§6) The prepared fresh bacterial suspension was diluted to 105 CFU/mL and added to the 96-well plate with 90 μL of the bacterial suspension per well. The plate was incubated at 37° C. with a normal oxygen concentration for 24 to 48 hours (Propionibacterium acnes was cultured anaerobically at 37° C. for 24 to 48 hours in an anaerobic bag). The absorbance at 630 nm was measured using a microplate reader, and the degree of turbidity was observed by the naked eye.
(§7) (iv) Repetition of Operations: The Operations in (iii) were Repeated Twice, and the Decision to Perform a Third Repetition was Based on the Reproducibility of the Experiment.

Staphylococcus aureus = experiment: Minimum inhibitory concentration on Staphylococcus aureus (liquid culture); conditions: for Minimum inhibitory concentration on Staphylococcus aureus: 37° C., 24 to 48 hours
Experimental: as §4, §5
(§8) Staphylococcus aureus was inoculated in LB medium with a normal oxygen concentration (21%) for 48 hours. Staphylococcus aureus clones were picked and incubated in LB medium at 37° C. with a normal oxygen concentration (21%) for an additional 48 hours. The bacterial concentration was measured and diluted to 107 CFU/mL with culture medium for use.
as §6, §7

Escherichia coli = experiment: Minimum inhibitory concentration on Escherichia coli (liquid culture); conditions: for Minimum inhibitory concentration on Escherichia coli: 37° C., 24 to 48 hours
Experimental: as §4, §5
as §8, with “E. coli” for “Staphylococcus aureus”, “with” for “with a”
as §6, §7

Candida albicans = experiment: Minimum inhibitory concentration on Candida albicans (liquid culture); conditions: 37° C., 24 to 48 hours
Experimental: Primary screening of liquid culture: the peptides in Examples 1 to 2 were dissolved in pure water to a concentration of 100 μg/mL. Using a micropipette, 10 μL of the peptides were added to a new 96-well plate in order from left to right, starting from the second compartment. Positive and negative controls were established for use. The 96-well plates were arranged vertically, and the peptide concentrations of the control groups were the same as those of the antimicrobial peptide. The control groups consisted of: pure water and bacteria, antimicrobial peptide FK13 and bacteria, and antimicrobial peptide HPA3NT3 and bacteria. An aseptic medium was used. The amino acid sequence of FK13 is […] (SEQ ID NO: 5), and the amino acid sequence of HPA3NT3 is […] (SEQ ID NO: 6).
as §5
as §8, with “Candida albicans was” for “Staphylococcus aureus was”, “with” for “with a”, “hours. […]” for “hours. Staphylococcus aureus”, “for” for “for an additional”
The prepared fresh bacterial suspension was diluted to 105 CFU/mL and added to the 96-well plate with 90 μL of the bacterial suspension per well, and incubated at 37° C. with normal oxygen concentration for 24 to 48 hours. The absorbance at 630 nm was measured with a microplate reader, and the degree of turbidity was observed by the naked eye.
as §7

[3] = system: rabbit blood erythrocytes; experiment: Measurement of hemolytic concentration; conditions: for Hemolysis rate: 37° C., 1 hour, replicate wells; for Minimum hemolytic concentration: rabbit erythrocytes
Experimental: 4 mL of 2% rabbit blood erythrocytes were washed twice with 4 mL PBS and centrifuged at 3000 rpm for 5 minutes. The supernatant was discarded, and the rabbit blood erythrocytes were resuspended in 4 mL PBS. 160 μg of the peptides from Examples 1 to 2, FK13, and HPA3NT3 were independently dissolved in 1 mL PBS buffer to prepare the peptide mother solutions with a concentration of 160 μg/mL. Subsequently, the peptide mother solutions were diluted with PBS buffer to concentrations of 80 μg/mL, 64 μg/mL, 32 μg/mL, 16 μg/mL, and 8 μg/mL. 100 μL of the 2% rabbit blood erythrocytes and 100 μL of different concentrations of peptides (80 μg/mL, 64 μg/mL, 32 μg/mL, 16 μg/mL, 8 μg/mL) were added to each well of a 96-well plate. In the negative control, 100 μL of PBS buffer was added, while in the positive control, 100 μL of 0.1% (w/v) Triton X-100 was added. Three replicate wells were set up for each group and incubated at 37° C. for 1 hour. The 96-well plate was then removed, centrifuged at 3000 rpm for 5 minutes, and 100 μL of supernatant was aspirated and transferred to a new 96-well plate. The absorbance was measured at 540 nm using an enzyme meter. Hemolysis rate (%)=((Absorbancesample−Absorbancenegative)/(Absorbancepositive−Absorbancenegative))*100%.

[4] = system: HaCat (human immortalized epidermal cells) cells; experiment: Cytotoxic assay (CCK-8) in HaCat cells; conditions: 60 hours
Experimental: Preparation of Cell Suspension: HaCat (human immortalized epidermal cells) cells were counted and inoculated into 96-well plates. 100 μL of cell suspension was added to each well, corresponding to a density of 5×10^4 cells per well, with three replicates for each sample. The cells were cultured in a 37° C. incubator for 4 hours until they were attached to the plate. Peptides from the examples, as well as FK13 and HPA3NT3, were then added at concentrations of 80 μg/mL, 32 μg/mL, and 8 μg/mL. The cells were incubated at 37° C. for 60 hours. Afterward, 10 μL of CCK-8 solution was added, and the cells were cultured for an additional 2 hours. The absorbance of the peptides at 450 nm was measured using a dual-wavelength detector, with a detection wavelength of 450-490 nm and a reference wavelength of 600-650 nm.

Row | Compound | IL-1β protein concentration [1] | IL-6 protein concentration [1] | NO concentration [2] | MIC (Propionibacterium acnes; Cutibacterium acnes, read-out: Minimum inhibitory concentration on Propionibacterium acnes) [µg/mL] | MIC (Staphylococcus aureus; Staphylococcus aureus, read-out: Minimum inhibitory concentration on Staphylococcus aureus) [µg/mL] | MIC (Escherichia coli; Escherichia coli, read-out: Minimum inhibitory concentration on Escherichia coli) [µg/mL] | Minimum inhibitory concentration on Propionibacterium acnes (Propionibacterium acnes) [µg/mL] | Minimum inhibitory concentration on Staphylococcus aureus (Staphylococcus aureus) [µg/mL] | Minimum inhibitory concentration on Escherichia coli (Escherichia coli) [µg/mL] | Minimum inhibitory concentration on Candida albicans (Candida albicans) [µg/mL] | Hemolysis rate ([3]; 8 μg/mL) | Hemolysis rate ([3]; 16 μg/mL) | Hemolysis rate ([3]; 32 μg/mL) | Hemolysis rate ([3]; 64 μg/mL) | Hemolysis rate ([3]; 80 μg/mL) | Minimum hemolytic concentration [3] [µg/mL] | Maximum cytotoxicity-free concentration [4] [µg/mL]
1 | C[C@@H]1C[C@H]2[C@@H]3CCC4=CC(=O)C=C[C@]4(C)[C@@]3(F)[C@@H](O)C[C@]2(C)[C@@]1(O)C(=O)CO [Dexamethasone, reference compound] | 75.1 pg/mL and 44 pg/mL | 14.2 pg/mL and 23.9 pg/mL | 6.80 µM and 6.06 µM and 3.43 µM |  |  |  |  |  |  |  |  |  |  |  |  |  | 
2 | O=C(O)c1cn(C2CC2)c2cc(N3CCNCC3)c(F)cc2c1=O [ciprofloxacin] |  |  |  | 0.25 (≈ 0.754 µM) | 0.25 (≈ 0.754 µM) | 0.25 (≈ 0.754 µM) |  |  |  |  |  |  |  |  |  |  | 
3 | Example 1: GIFKKITGKLFKWIK (designated as AMP5) |  |  |  |  |  |  | 8 | 50 | 50 | 25 | 14.6% and −0.9% and 2.8% | 5.9% and 1.8% and 80.0% | 62% and 2.8% and −1.9% | 3.7% and −1.0% and 3.8% | 14.6% and −0.9% and 2.8% | 3.7 | 80
4 | FK13: antimicrobial peptide FK13, FPLTWLKWWKWKKK [reference compound] |  |  |  |  |  |  | 4 | 4 | 50 | 25 | 3.9% and 7.2% and 5.9% | 3.4% and 2.5% and 0.4% | 2.5% and 3.1% and 5.0% | 5.3% and 2.5% and 2.7% | 27.0% and 21.5% and 27.4% | 64.0 | 80
5 | HPA3NT3: antimicrobial peptide HPA3NT3, FKRLKKLFKKKKIWNWK [reference compound] |  |  |  |  |  |  | 2 | 4 | 25 | 50 | 2.4% and 6.2% and 4.7% | 23% and −0.2% and 0.4% | 2.7% and 1.4% and 7.8% | 21.4% and −0.8% and 0.6% | 9.7% and 8.5% and 13.7% | 64.0 | 32
